A short description of the series: soluble on expression in E. coli; label from the status in PepcDB or PDB records.
“MNTRTIYLAGGSFWGLEAYFQRIDGVVDAVSGYANGNTKNPSYEDVSYRHTGHAETVKVTYDADKLSLDDILQYFFRVVDPTSLNKQGNDTGTQYRSGVYYTDPAEKAVIAAALKREQQKYQLPLVVENEPLKNFYDAEEYHQDYLIKNPNGYCHIDIRKADEPLPGKTKTAPQGKGFDAATYKKPSDAELKRT”: the “soluble on expression in E. coli” value is reported as “soluble”.

In the case of “MGSDKIHHHHHHMSPHDAKSVIRRFVKEVLNDKNLAVIDEICPPDYVELDPLPGQGPGAAGLKAFLGESFFKAFPDLVWVNEEMVAEGEYVMARSTWTGTHRGEFLGIPPTHRAVKVAAWTIDHVVDGKFVDSRILVDALSLLQQLGALPAWPPPPKTFQAMVDAAYRSVPTIKAADLHRRLKREPDLLIIDVRDAAEVAQTGAIPGAINLSYGTLTYAADHTAPEDWRDPRLADHARPIVTTCGLGPLGALGGGLLHEMGFTNVQILEGGVQAWIDAGLPVVKPGDQ”, the “soluble on expression in E. coli” value is given as “not soluble”.

For “MTSSNKLHEVDKDQQSAFDITGRYQTISAHPTKEFSKPTLAAGAVLWRHSSTITENPAVEFAVIHRPHYDDWSLAKGKVDPGESLPVTAEREIREETGHHVHLGKLLGKVSYPVGERTKVVYYWIAQVHDEAFEENNEVDELRWLPYTEARELLSYDVDRLVLDKAYKRLALPTTTRVILVRHAKAHQRHNWAGNDSIRPLEKKGQRQADLLGPMLAAYGPTSIHSATPARCQQTAAPLSELTGLEVVVDDRFDDEAWLSRMTVAQKACEELIATPGTHVVVSQGLFIPDAIAWLSAQGRLPLETIEAKKASAWVLSFHEGELTGADYLVSPLGVK”, the “soluble on expression in E. coli” value was “not soluble”. Turning to “VVGGTDADEGEWPWQVSLHALGQGHICGASLISPNWLVSAAHCYIDDRGFRYSDPTQWTAFLGLHDQSQRSAPGVQERRLKRIISHPFFNDFTFDYDIALLELEKPAEYSSMVRPISLPDASHVFPAGKAIWVTGWGHTQYGGTGALILQKGEIRVINQTTCENLLPQQITPRMMCVGFLSGGVDSCQGDSGGPLSSVEADGRIFQAGVVSWGDGCAQRNKPGVYTRLPLFRDWIKENTGV”, the “soluble on expression in E. coli” value is “soluble”.

Regarding “EGDKVTGEVQQVEDKQVVVHINGGKFNGIIPISQLSTHHIENPSEVVKVGDEVEAYVTKIEFDEENDTGAYILSKRQ”, the “soluble on expression in E. coli” value is given as “not soluble”. Regarding “MRDNPLVSILIPTFNRPMLLEKSLRSAVNQTYKNIEIVICDDSTNYDSKTVVESYMKRYKNIRYYFNNGPLGNFGLNNVKKCYELSKGEYINYLNDDDMFHKSKIMRMIRYFQNYKKITLVTSHRSVIDKNDNILPDINATKRIRYLNRPVSGRIIAKLMFNLGNFIGEPTTVLFKKSDVKNFGSLNGKQYYSLIDAATWFELLSKGYCVYIADTLSYFRIHEGQNTNRPEVSGRFLLEWKDLNDYGYRKKIIDSEFYKRFLLSFKKEYEKPKLEHHHHHH”, the “soluble on expression in E. coli” value was “not soluble”.

Consider “MGSDKIHHHHHHMSSIIENLQLAAQQVHLINLYQANSEVVYTGYIDRLAPDGVVVNTYDDAGLQDGAVFMRYDVIDEVEMMSEDLDNMAFRLENATTEGLNSVPQPTVALDDQRPVLTQLVTQAQTDHQVVLLVLEDNENYLEGQVQQVTDQTITFKTFDKFNFKNNGQQEIPLAAIQILEFCGNELLLESAFVKTIHTHRATIKVSEFDDVDHTLNNALNEHQLIAIRSADGSDMFFVGFINALNADSVLLNLIDMTGQFGGYTLCRRSLIESVTTQSDYLQTMRGFIELNRQYELNVQPVLNDERLFDATTDLFDSILRQAATFNNLVHITTENPMLPAMTGYPGTLTNGHFIFYNVDDDNQINHVGTMIELDQVVELSFGYMDAYLLEKRLKSTGNL”, for which the “soluble on expression in E. coli” value is on record as “not soluble”. Consider “GSDDINQKVAEQLAQKAQSSSLGYDIVESLTVEVGPRLAGSEQDKVAVDWAIAKLQSLGFDRVYKEPVTVPVWRRGIAKASILSPFPQPLVVTALGGSIATPAQGLSATIVRFDTLQDLQNAEAGSLNDKIAFIDAKTERHRDGKGYGQTASGRSRGAVAAAEKGAVGIIIRSIGTDHDRMAHTGMMRYEEGVTAIPAAAISNPDADLINAMLKRDKEVVISLELGSERRGETTSYNVIAEVKGSTKADEIVLIGAHLDSWDEGTGAIDDGAGVAIVTAAAKHILDLPQKPERTIRVVLYAAEELGLLGGKTYAKEHEAELEKHYIAAESDFGAGPIYQIDWRVADTAHSPVINAMKVAEPLGVAAGNNKASGGPDVSMLPALGVPVASLRQDGSDYFDYHHTPNDTLDKINPEALAQNVAVYAQFAWVMANSKVELRPLPPKE”, for which the “soluble on expression in E. coli” value was “soluble”.

With “MKFVDEASILVVAGDGGNGCVSFRREKYIPKGGPDGGDGGDGGDVWMEADENLNTLIDYRFEKSFRAERGQNGASRDCTGKRGKDVTIKVPVGTRVIDQGTGETMGDMTKHGQRLLVAKGGWHGLGNTRFKSSVNRTPRQKTNGTPGDKRELLLELMLLADVGMLGMPNAGKSTFIRAVSAAKPKVADYPFTTLVPSLGVVRMDNEKSFVVADIPGLIEGAAEGAGLGIRFLKHLERCRVLLHLIDIDPIDGTDPVENARIIISELEKYSQDLATKPRWLVFNKIDLLDKVEAEEKAKAIAEALGWEDKYYLISAASGLGVKDLCWDVMTFIIENPVVQAEEAKQPEKVEFMWDDYHRQQLEEIAEEDDEDWDDDWDEDDEEGVEFIYKR”, the “soluble on expression in E. coli” value is “soluble”. For “MCIAIPGRIERIDYPIAIVDFKGLKKEVRIDLLENPQIGDYVLVHVGMAIQKVDEEEAKKTWELLERVADETGNQAF”, the “soluble on expression in E. coli” value is listed as “not soluble”. Take “MATPDLTIRGGGIFGLAVAWAAVRRGAKVRLIESARIGAGSSGGVVGALSPHVPEQWNEKKAFQFESLAMGEAWWAAVADASGLPTGYDRLGRFQPLADARAVDHARARAEEARTLWQGRFSWEVVPAGGDFMPESPTGLVIHDTLTARLNPRLAVPALVQAIRAQGGEILIGEGEEAGPVVWATGVAGLEALSQDLGKPVGNGVKGQAMVVALDARDRPQVFGPGLLIVPHADGTTAVGSTAEKDWTAPDTTDAQLDEVHARAVALCPWLEGAPVLTRWAGLRPRARSLAPMLGEWPGRPGQYVANGGFKIGFGMAPKVGEVMAALVLEGRDEIPESFRVEASLKKKGKAEELEHHHHHH”: the “soluble on expression in E. coli” value is on record as “not soluble”. For “HHHHHHGSGAVKLSVSYRNGTLFIMVMHIKDLVTEDGADPNPYVKTYLLPDTHKTSKRKTKISRKTRNPTFNEMLVYSGYSKETLRQRELQLSVLSAESLRENFFLGGITLPLKDFNLSKETVKWYQLTAATYL”, the “soluble on expression in E. coli” value is “soluble”. “MGSDKIHHHHHHMDNKTQEKADFTLANAYGGVEMVRADYKGQAFSKHVHEGYTIGVIEKGAQRFYRSGEIHTADTNSIILVNADDVHTGESASSGGWQYRAMYPLPEHFENISNDLYDKGKFAPYFGSSVINDPLLTDQLRLLFNQVDNNASQLLTETIMYSLMLRLTLRHSSLRHVPKDISGSKAKLLRVKEYLDSYPAEDISLKQLAIIAGLSQYHFIRQFKKMFDLAPHSYQIQARLKKAKTLLKAGVKPVMVASDCGFHDQSHFNRHFKKALGTSPSKFQKQAVLYKN”: the “soluble on expression in E. coli” value is listed as “not soluble”. Consider “MAHHHHHHMSVEEVQNAAAMADEEIPTLEAAEVPQNAKQSKRYAKAMAKMGLKPEPNITKVTIRKVGSLSFAMVQPEVYRFPGTNTFVIFGEAQLEDTSALAQEAAARAAVSGAASASSDAAASVPAAEEDDDEEVDAGDLDEKEINVVMSQANVSRSKAIKALKNNNGDIVNTIMELTM”, for which the “soluble on expression in E. coli” value is given as “soluble”. Under “MGSDKIHHHHHHMAIGTLEATTLIRGRAMTTVLPSPELIASFVDIVGPGNALTAPADTAPYLVESRGLYRGTTPLVLRPGSVEEVSLVMRLASQTRTAVVPQGGNTGHVAGQIPREGKADVVLSLERLNRIRDIDPVGNVIVADAGCILADIQKAADDVDRLFPLSLGSEGSARIGGNLSTNAGGTAVLAYGNMRQLCLGLEVVLPTGEIWDGLRRLRKDNTGYDLRDLFIGAEGTLGVITGAVLKLFPKPRGHQVAFAGLRSVEDALTLFDRATSVCGPALTGFELMPRLGIEFTTRHIAGVRDPMETTHPWYALIDISTSDTAESAERMVQDLLEAVIADGLVENAVIAQNEAQRRALWHMRESMSPAQKPEGGSIKHDVSVPVSSIPAFMTEADALVSKAIPGARICAFGHMGDGNIHYNISQPVGADKQSFLDRWREINAIVHAVVLKHDGSISAEHGIGQLKRDELAAIRSPIEIELMRRIKHAFDPAGIMNPDKVLREDRGE” stands “not soluble”. Under “MNLVPPKEEENLIVFNKQLGEDRRIVMSRSNLNELLKALEENELLCTDLYQVNTDGVILTKQRAEKVIGWARNHYLSSCPSPSIKEGRLILPRESIEISVKRLKAQEDISRKPTQNLKRFLFLQNIAKDEFETNFVSAVVAPGEIGVKFDDIGALEHVKKTLNELVILPMRRPELFTRGNLLRPCKGILLFGPPGTGKTLLAKALATEAGANFISITGSTLTSKWFGDAEKLTKALFSFASKLAPVIIFVDEVDSLLGARGGAFEHEATRRMRNEFMAAWDGLRSKDSQRILILGATNRPFDLDDAVIRRLPRRIYVDLPDAENRLKILKIFLTPENLETGFEFDKLAKETEGYSGSDLKNLCIAAAYRPVQELLQEENKDSVTNASPDLRPLSLDDFIQSKAKVSPSVAYDATTMNELRKWNEQYGEGGTRTKSPFGF” stands “soluble”; under “MNNNDVLRKLRYTFNFNDKQMVAIFASAGEEVSREQVSQWLKKDTDSDFVALFDTKLAVFLNGFINEKRG”, “not soluble”; under “MSDTPSTSSVFLPTWPTRRTDANLYPNGSTKSDELVLHDYGLEEIPMRYHIEQPEEDYDPQNVKKLDLTHNSFVILRGLTTFNNVSVLDVSFNSLSALPEDIGTLSSLTTLIARNNLLEHLPKGLQLLENLEHLYLSGNRLEYVPPVILTMRKLKTLHLGGNYIDSCPSNISVLTLLRVLYLGGNRLREIPASIGCLDELENLGLCDNILETIPSTLGDLHYLETLSLHNNRLRTLPTDILNLRRLQQLSLRNNPLVHSFVHNMDLAPPSLKELSGRTVRQNYHKVPNLDEILPSDLVAYLGSACQCVNPECQGVYFDARVEHIKFVDFCGKYRVPLMQFLCSPRCSAGVPSVDYDTSSESEEEIEPIMRRVLLG”, “not soluble”. Turning to “MWIPSKLTRPGRLHNAIVRPRVLDLLQQAPYYKLVLFRSPAGYGKTTMAAQWLSDKPNVGWYSIDDSDNDGFRFVNYLLQALNKATNFSCSNAQKLAEKRQISSLRSLFSEVFAEMADFHQECYVVLDDYHLITNDEIHESMRFFLKHMPDNLTVVVTSRAAPPLGTANLRVRDLMIEIGNEMLAFDTEETTRFFNQRIADGIDEDMANSLRTYVEGWPSAMQLIALQAQHQNRTLAQTVESVSQFNHAHLWDYLVEEVFDLLDHETRHFLMQVSVLDHFNDELVFALTQREDALGLIESLNRYGLFIYPLEGEHNWFRFHNLFGEFLSHERQARIPQQEKDLHRNAAVAWLQQKSPHQAIHHAQKSNDKDLVVEILNEFGWKMFNQGELSTLEHAINKLDAELLFSHPKLTMLRAWLAQSQHRYNQVGQLLEEAEEEHKKRNIELDIHYQGQA”, the “soluble on expression in E. coli” value was “not soluble”.

Take “MAPPVLKNEDSDLAVREPAAKKSKKSNGKAQAVKSESSESMFMTEATTDENIYPDATFQSYEEFDQKFNVWKAKNLHPFRVASSESLRTEDGSISEKFKYRYVVFHCARYGVPRMRGEGKRPNQNYLPCSCTAMIRLNFQFHEQCLRLTSLETRHSNHTICKDLYEKMCVKEEKRKHVTPRRTMSGPKSRSSSVATAGNADTSLISDRSINVKKEPSEERADSEHSHGQSPVDLHYEVTRPYEVSPSAPISEITTPFVLPTQKVGLNDLVPTSQFSPMDYQSLQNQIILNQVKLNAMTNNVYNPFGNWPASSLVPTPAPPFLTPTPSQVSPALSSSVDENEAPKIFHSLEAVRPIPLRPSQNSAFYQMLNSSSTSPIIAVTKAEVDSVLGAASRLLNDNHLPEDVLHSRVKQLNGLISQWTHS”: the “soluble on expression in E. coli” value was “not soluble”.

Values taken from the DeepSol protein solubility set.
